Consider 14 molecules from patent US20240294650A1 (Alector, published 2024).

In test [1] the target is T1, human MerTK (human, UniProt Q12866 21-999).
T1 construct: endogenous receptor on cells; also called human MerTK endogenously expressed on SK-MEL-5 cells; MerTK on human macrophages
T1 sequence: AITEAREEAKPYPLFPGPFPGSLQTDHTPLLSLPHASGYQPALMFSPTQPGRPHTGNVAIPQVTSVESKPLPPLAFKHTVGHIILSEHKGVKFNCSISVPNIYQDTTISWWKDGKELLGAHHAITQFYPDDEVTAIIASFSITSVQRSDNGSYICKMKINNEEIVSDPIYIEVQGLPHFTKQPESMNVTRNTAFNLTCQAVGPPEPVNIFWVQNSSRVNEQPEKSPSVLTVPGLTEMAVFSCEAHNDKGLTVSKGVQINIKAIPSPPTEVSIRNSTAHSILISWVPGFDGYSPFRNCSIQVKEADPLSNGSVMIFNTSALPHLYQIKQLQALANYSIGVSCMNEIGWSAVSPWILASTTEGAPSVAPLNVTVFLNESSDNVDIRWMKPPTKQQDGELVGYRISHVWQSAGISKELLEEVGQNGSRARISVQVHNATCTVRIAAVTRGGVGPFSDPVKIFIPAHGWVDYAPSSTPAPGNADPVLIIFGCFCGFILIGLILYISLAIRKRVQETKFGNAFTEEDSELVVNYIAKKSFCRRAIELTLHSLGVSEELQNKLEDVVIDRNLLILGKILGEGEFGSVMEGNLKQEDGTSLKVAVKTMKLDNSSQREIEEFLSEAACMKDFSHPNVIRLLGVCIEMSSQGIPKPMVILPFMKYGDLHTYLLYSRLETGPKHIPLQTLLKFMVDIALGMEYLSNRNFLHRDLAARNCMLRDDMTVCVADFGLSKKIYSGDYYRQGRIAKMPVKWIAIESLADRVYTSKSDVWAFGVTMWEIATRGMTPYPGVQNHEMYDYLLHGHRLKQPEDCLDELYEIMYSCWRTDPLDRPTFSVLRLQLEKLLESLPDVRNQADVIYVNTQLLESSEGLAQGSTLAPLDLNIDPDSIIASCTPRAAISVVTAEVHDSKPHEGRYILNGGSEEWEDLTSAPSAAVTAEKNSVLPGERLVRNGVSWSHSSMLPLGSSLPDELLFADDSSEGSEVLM
Put plainly: FACS, SK-MEL-5 cells, 10 ug/ml. On the procedure:
(§1) To determine whether recombinant anti-human MerTK antibodies of the present disclosure bind to human MerTK endogenously expressed on SK-MEL-5 cells and CHO cells overexpressing mouse MerTK (CHO-muMerTK OE cells), as compared to A375 and parental CHO cells as negative controls, the following experiments were performed. SK-MEL-5 cells, A375 cells, CHO-muMerTK OE cells, and CHO parental cells were plated at 100,000 cells/well. Anti-MerTK antibodies were added to the cells at 10 μg/ml. After 60 minutes on ice, cells were washed and then stained with PE-conjugated goat anti-human IgG antibody (Southern Biotech Cat #2040-09, Birmingham, AL) in the presence of Fc block solution on ice for 30 minutes, and then washed twice with cold FACS buffer (2% FBS in PBS). Mouse anti-human MerTK-PE conjugated (Biolegend, Clone 590H11G1E3) or anti-mouse MerTK-PE conjugated (ThermoFisher, Clone DS5MMER) antibodies were used as positive controls. Stained cells were acquired on a BD FACS Canto II cytometer and the mean fluorescence intensity (MFI) was calculated with FlowJo.
For orientation: In flow cytometry, cells or beads pass a laser one at a time.

Test [2] concerns the target T2, mouse MerTK overexpressed on CHO cells (mouse, UniProt Q60805 19-994).
T2 construct: whole, on cells; also called CHO-muMerTK OE
T2 sequence (looked up): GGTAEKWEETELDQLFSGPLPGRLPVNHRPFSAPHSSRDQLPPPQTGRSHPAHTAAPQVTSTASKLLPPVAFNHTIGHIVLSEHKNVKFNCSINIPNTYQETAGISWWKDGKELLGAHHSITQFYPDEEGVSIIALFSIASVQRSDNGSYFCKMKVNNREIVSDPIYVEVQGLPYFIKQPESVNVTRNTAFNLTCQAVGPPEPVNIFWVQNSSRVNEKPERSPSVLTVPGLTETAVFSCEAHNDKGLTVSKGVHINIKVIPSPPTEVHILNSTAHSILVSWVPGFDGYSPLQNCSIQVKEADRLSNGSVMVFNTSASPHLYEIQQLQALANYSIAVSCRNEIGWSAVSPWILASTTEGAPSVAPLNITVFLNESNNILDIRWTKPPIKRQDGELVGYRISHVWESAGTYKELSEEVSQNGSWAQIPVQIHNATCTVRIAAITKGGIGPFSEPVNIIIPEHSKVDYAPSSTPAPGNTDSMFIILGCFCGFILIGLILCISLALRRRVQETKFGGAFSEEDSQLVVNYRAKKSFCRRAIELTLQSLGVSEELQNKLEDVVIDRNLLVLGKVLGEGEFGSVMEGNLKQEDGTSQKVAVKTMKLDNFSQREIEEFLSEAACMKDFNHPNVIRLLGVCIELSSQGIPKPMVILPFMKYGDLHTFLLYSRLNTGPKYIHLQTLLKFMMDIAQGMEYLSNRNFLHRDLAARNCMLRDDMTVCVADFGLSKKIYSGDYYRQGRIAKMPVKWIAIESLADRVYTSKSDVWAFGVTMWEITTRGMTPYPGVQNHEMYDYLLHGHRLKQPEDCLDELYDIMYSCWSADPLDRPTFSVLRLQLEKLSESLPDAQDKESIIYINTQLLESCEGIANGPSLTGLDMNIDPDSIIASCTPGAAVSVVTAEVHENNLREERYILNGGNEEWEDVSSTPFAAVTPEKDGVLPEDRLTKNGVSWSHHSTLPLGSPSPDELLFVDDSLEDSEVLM
Put plainly: FACS, CHO-muMerTK OE cells, 10 ug/ml. On the procedure:
as §1

Numbering of substitutions follows the chain as printed.

B1: MTK-223 (antibody, human IgG1, V domains shown)
VH: DVQLQESGPGLVKPSQSLSLTCSVTGYSITSGYYWNWIRQFPGNKLEWMGYISYDGTNNYNPSLKNRISITRDTSENQFFLKLNSVTTEDTATYFCVRGAGYWGQGTTLTVSS
VL: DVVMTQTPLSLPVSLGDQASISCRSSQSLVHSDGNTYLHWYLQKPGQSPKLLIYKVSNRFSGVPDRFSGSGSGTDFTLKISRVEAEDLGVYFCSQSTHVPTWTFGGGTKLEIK
B1: the figures for the MFI in test [1] and in test [2] were 26800 MFI and 234 MFI, respectively.

B2: MTK-227 (antibody, human IgG1, V domains shown)
VH: EVKLVESGGGLVQPGGSLSLSCAASGFTFTDNYMTWVRQPPGKALEWLGFSRNKANGYTTEYSASVKGRFTISRDSSQSILYLQMNALRAEDSGTYYCARFPPHYYAGGYFDVWGTGTTVTVSS
VL: DIQMTQSPASLSASVGETVTITCRASENIYSYLAWYQQKQGKSPQLLVYNAKTLAEGVPSRFSGSGSGTQFSLKINSLQPADFGSYYCQHYYRTPPTFGGGTKLEIK
With B2, the figures for the MFI in test [1] and in test [2] were 40900 MFI and 14200 MFI, respectively.

B3: MTK-206 (antibody, human IgG1, V domains shown)
VH: QVQLQQSGAELARPGASVKMSCKASGYTFTSYTMHWVKQRPGQGLEWIGYINPSSGYIKNSQKFKDKATLTADKSSSTAYMQLSSLTSEDSAVYYCARTVYGYYGSSPDYWGQGTTLTVSS
VL: DIQMTQSPSSLSASLGERVSLTCRASQDIGSNLNWLQQEPDGTIKRLIYATSSLESGVPKRFSGSRSGSDYSLTISSLESEDFVDYYCLQYDSSPWTFGGGTKLEIK
B3 gave an MFI in test [1] of 3270 MFI.

B4: MTK-215 (antibody, human IgG1, V domains shown)
VH: EVQLVESGGGLVKPGGSLKLSCAASGFIFSDYGMHWVRQAPEKGLEWVAYISSGSSTIYYGDTVKGRFTISRDNAKNTLFLQMTSLRSEDTAMYYCAKGGRYGAMDYWGHGTSVTVSS
VL: DIVLTQSPATLSVTPGDSVSLSCRASQSISNNLHWYQQKSHESPRLLIKNPSQSISGIPSRFGARGSGTDFTLIINSVETEDLGVYFCQQSNSWPFTFGSGTKLEIK
Consider B4, for which the MFI in test [1] came to 19000 MFI.

B5: MTK-229 (antibody, human IgG1, V domains shown)
VH: QVQLQQSGPELVKPGASVKISCKASGYEFSRSWMNWVKQRPGKGLEWIGRIYPGDGDTNYKGKLKGQATLTADKSSSTAYMQLSSLTFEDSAVYFCARGGGYYYDSRYEGFVYWGQGTVVTVSA
VL: QIVLTQSPAIMSASPGEEVTMTCSASSSVSYMHWYQQKSGTSPKRWIYDTSKLASGVSGRFSGSGSGTSYSLTISSMEAEDAATYYCQQWSSNPPITFGAGTKLELK
For the molecule B5, the MFI worked out at 32200 MFI in test [1] and 2000 MFI in test [2].

B6: MTK-201 (antibody, human IgG1, V domains shown)
VH: QVQLRQSGPGLVQPSQSLSITCTVSGFSLSNYGLHWVRQSPGKGLEWLGVIWSGGITDYNAAFISRLSIIKDNSRSQVFFKMNSLQADDTAIYYCARKGHDPYAMDFWGQGTSVTVSS
VL: QIVLTQSPPIMSAFLGERVTMTCTASSSVSSSYLHWYRQMPGSSPKLWIYDTSNLASGVPARFSGSGSGTSYSLTISSMEAEDAATYYCHQYHHSPYTFGGGTKLEIK
For B6, the MFI in test [1] was 40300 MFI; in test [2], 252 MFI.

B7: MTK-228 (antibody, human IgG1, V domains shown)
VH: QDQLQQSGPELVKPGASVKISCKASGYSFTSYYIHWVKQRPGQGLEWVGWIFPGNGNTKYNERFKGKATLTADTSSSTAYMQLSSLTSEDSAVYYCARLGLIYALDYWGQGTSVTVSS
VL: DAVMTQTPLSLPVSLGDQASISCRSSQSLENSNGNTYLHWYLQKPGQSPQLLIYRVSNRFSGVLDRFSGSGSGTDFTLKISRVEAEDLGVYFCLQVTHVPFTFGSGTKLEIK
In the case of B7, the figures for the MFI in test [1] and in test [2] were 60200 MFI and 17400 MFI, respectively.

B8: MTK-226 (antibody, human IgG1, V domains shown)
VH: B7 VH with D2V, V48I, R63N, K65R
VL: B7 VL with N31S, K79Q
On to B8, for which the MFI in test [1] was found to be 49100 MFI; in test [2], 11500 MFI.

B9: MTK-218 (antibody, human IgG1, V domains shown)
VH: B7 VH with D2V, A16T, E46D, V48I, G56R, K59Q, R63K
VL: B7 VL with N35H, L64Q
Consider B9, for which the MFI in test [1] amounted to 49000 MFI; in test [2] it was 13200 MFI.

B10: MTK-203 (antibody, human IgG1, V domains shown)
VH: QVQLQQPGAELVKPGASVKVSCKASGYTFTNYWMHWVKQRPGQGLEWIGRIHPFDTETNDNQKFKGKATLTVDKSSSTAYMQLSSLTSEDSAVYYCVIPANGGFAYWGQGTLVTVSA
VL: ETTVTQSPASLSVATGEKVTIRCITSTDIGDDMNWYQQKPGEPPKVLISEGNSLRPGVPSRFSSSGYGTDFVFTIENTLSEDVADYFCLQSDNLPLTFGSGTKLEIK
Molecule B10 had an MFI in test [2] of 2080 MFI.

B11: MTK-216 (antibody, human IgG1, V domains shown)
VH: EVQLVESGGGLVKPGGSLKLSCAASGFTFSDYGMHWVRQAPEKGLEWVAFISSGSTTIYYADTVKGRFTISRDNAKNTLILQMTSLRSEDTAIYYCTRGGFHLDYWGQGTTLTVSS
VL: SIMMTQSPSSLAVSAGEKVTMGCKSSQSVLYSANQQNYLAWYQQKPGQSLKLLIYWASTRESGVPDRFTGSGSGTDFTLTISSVQAEDLAVYYCHQYFSSWTFGGGTKLEIK
For the molecule B11, the MFI in test [1] was 43300 MFI.

B12: MTK-224 (antibody, human IgG1, V domains shown)
VH: QVQLQQPGAELVKPGASVKVSCKASGYTFTSYWMHWVKQRPGQGLEWIGRIHPFDSDTNYNQKFKGKATLTVDKSSSTAYMQLSSLTSEDSAVYYCSIAGFAYWGQGTLVTVSA
VL: DIVMTQSPATLSVTPGDRVSLSCRASQIISDYLNWYQQKSHESPRLLIKYASQSISGIPSRFSGSGSGSDFTLSINSVEPEDVGVYYCQNGHSFPLTFGAGTKLELK
Molecule B12 gave an MFI in test [2] of 616 MFI.

B13: MTK-209 (antibody, human IgG1, V domains shown)
VH: B12 VH with S31N, M34I, D57E, T58P, Q82H, S84T, S97A, I98L, G100S
VL: ETTVTQSPASLSMAMGEKATIRCITSTDIDDKMNWYQQKPGKPPKLLISAGNTLRPGVPSRFSSSGYGTDFVLTVENMLSEDVADYYCLQGGALPLTFGSGTKLEIK
Molecule B13 registered an MFI in test [2] of 1220 MFI.

B14: MTK-230 (antibody, human IgG1, V domains shown)
VH: EVQLQQSGPELVKPGASVRIPCKASGYTFSDYNMDWVKQSHGKSLEWIGNINPNIGGTIYSQKFKGKATLTVDKSSSTAYMELRSLTSEDTAVYYCARGDYGFASWGQGTLVTVSA
VL: DIVLTQSPASLTVSLGQRATISCRASRSVSTSGYSYMHWYQQKPGQPPKLLIYLASNLESGVPARFSGSRSGTDFTLNIHPVEEEDAATYYCQHSREYPFTFGSGTKLEIK
Consider B14, for which, in test [2], the MFI was 12400 MFI.
